Measurements as given in PMC3492541 (Nature structural & molecular biology, 2012).
Positions count from the first letter of the chain named.

B1: GST 7D (GST tail phosphomimetic in both zone 1 and zone 2) (domain or fragment, human, UniProt O14777 1-80, looked up)
chain: MKRSDVSDGGAGRLDMQELRSQDVNKQGLYTPQTKEKPTFGKLDINKPTSERKVDLFGKRTDGHGSRNDQLGIFSSSEKI
B2: GST 4D (GST tail phosphomimetic in zone 1) (domain or fragment, human, UniProt O14777 1-80, looked up)
chain: B1 chain with D5S, D8S, D15S
B3: GST tail phosphomimetic in zone 2 (domain or fragment, human, UniProt O14777 1-80, looked up)
chain: B1 chain with D44S, D55S, D62S, D69S

The binders below were run against taxol-stabilized microtubules (UniProt Q6B856 1-439) (assay: co-sedimentation).

| reduction of microtubule binding relative to GST 1–80 | Binder |
| --- | --- |
| 80% | B1 |
| 60% | B2 |
| 20% | B3 |
